In US20210070872A1 (AGENUS, published 2021):
Residue numbers refer to the chain shown, from its start.

Target: T1, biotinylated GITR (human, UniProt Q9Y5U5 26-161, limits assumed, biotinylated (sites not given))
T1 construct: also called GITR-bio; Biotin-GITR
T1 sequence: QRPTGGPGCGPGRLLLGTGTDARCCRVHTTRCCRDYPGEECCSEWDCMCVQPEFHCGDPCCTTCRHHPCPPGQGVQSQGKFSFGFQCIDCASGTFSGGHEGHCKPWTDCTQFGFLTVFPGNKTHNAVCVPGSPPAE
Experiment: BLI (Octet), biotin-GITR on streptavidin tips, antibody supernatant
Protocol: Several hundred germlined antibodies were selected based on binding kinetics as determined by Octet measurements (Octet RED 96 system; ForteBio™ Inc., Menlo Park, Calif.). The experimental procedure was configured according to the instruction manual of the instrument. Biotin-GITR was bound to Streptavidin biosensor (SA) and PBS (pH 7.4) was used as a blank control. Briefly, the interaction analyses were conducted at 30° C. in running buffer (PBS, 0.05% Tween, pH7.4). Sensor tips were pre-wet for 10 minutes in running buffer immediately prior to use, and the micro plates used in the Octet were filled with 200 μl of sample or buffer per well and agitated at 800 rpm. For the experiments, commercially available precoated SA tips were used. Biotinylated GITR was loaded onto the ForteBio SA fibers in PBS pH7.4 for 10 minutes and washed for 4 minutes. For the association phase, the ligand-coated SA tips were immersed for 5 minutes in cell culture supernatant that was diluted 1:10 in running buffer prior to the measurement. Dissociation of the antibody-antigen complex was measured in wells containing the Octet buffer alone for 5 minutes. After each run, the tips were regenerated with Glycine (10 mM, pH 2.0). Affinity, Kₒₙ and Koff were determined with Octet evaluation software v6.3 using a 1:1 binding model with local full fitting.

B1: germline variant antibody 45 (H1916E05 / K1916E05) (antibody, V domains shown)
VH: QVQLVQSGAEVKKPGASVKVSCKGSGYTFTEYAMYWVRQAPGQGLEWIGLIRTYSGGVSYNQKFQGRVTMTVDTSISTAYMELSRLRSDDTAVYYCAKSGTVRGFAYWGQGTFVTVSS
VL: DIVMTQSPDSLAVSLGERATINCKSSQSLLNSGNQKNYLSWYHQKPGQPPKLLIYWASTRESGVPDRFTGSGSGTDFTLTISSVQAEDVAVYYCQNDYSFPYTFGQGTKLEIK
notes: IGHG1/IGKC expression vectors; measured from CHO culture supernatant; also called Antibody ID 45
B1 was tested, and the Kd was 0.562 nM, the koff was 0.000255 s⁻¹ and the kon was 455000 M⁻¹ s⁻¹.

B2: germline variant antibody 55 (H1916F10 / K1916F10) (antibody, V domains shown)
VH: B1 VH with A9T, G24A, E31D, S59T, F113L
VL: B1 VL with H43Q, T69S, Y93H
notes: IGHG1/IGKC expression vectors; measured from CHO culture supernatant; also called Antibody ID 55
B2 gave a Kd of 1.27 nM, a koff of 0.00055 s⁻¹ and a kon of 435000 M⁻¹ s⁻¹.

B3: germline variant antibody 79 (H1917D04 / K1917D04) (antibody, V domains shown)
VH: B1 VH with A9T, Y35H, L45M, I48M, S59T, Q65R, G66E, T74K, F113L
VL: B1 VL with S40T, L52M, T69S, V84L, F100Y
notes: IGHG1/IGKC expression vectors; measured from CHO culture supernatant; also called Antibody ID 79
Binder B3 has a Kd of 2.87 nM, a koff of 0.00129 s⁻¹ and a kon of 450000 M⁻¹ s⁻¹.

B4: germline variant antibody 39 (H1916D09 / K1916D09) (antibody, V domains shown)
VH: B1 VH with E31G, Y35H, I48M, Q65R, G66E, V68A, F113L, V114I
VL: B1 VL with G33S, S40T, H43Q, Y93H, D97E
notes: IGHG1/IGKC expression vectors; measured from CHO culture supernatant; also called Antibody ID 39
For B4, the Kd was 0.255 nM, the koff was 0.000997 s⁻¹ and the kon was 3.91e+06 M⁻¹ s⁻¹.

B5: germline variant antibody 36 (H1916D06 / K1916D06) (antibody, V domains shown)
VH: B1 VH with E31D, L45M, L50V, Y54F, Q65R, G66D, T74K, F113L
VL: B1 VL with G33S, S40T, L52M, T69S, A86E, Y93H
notes: IGHG1/IGKC expression vectors; measured from CHO culture supernatant; also called Antibody ID 36
For B5, the Kd was 0.44 nM, the koff was 0.00028 s⁻¹ and the kon was 638000 M⁻¹ s⁻¹.

B6: germline variant antibody 9 (H1916A10 / K1916A10) (antibody, V domains shown)
VH: B1 VH with G24A, E31G, I48M, G57E, Q65R, V68A, T74K, F113L
VL: B1 VL with S40T, H43Q, L52M, T69S, V84L, Y93H
notes: IGHG1/IGKC expression vectors; measured from CHO culture supernatant; also called Antibody ID 9
In the case of B6, the Kd is reported as 2.68 nM, the koff is reported as 0.000784 s⁻¹ and the kon is reported as 293000 M⁻¹ s⁻¹.

B7: germline variant antibody 1 (H1916A01 / K1916A01) (antibody, V domains shown)
VH: B1 VH with A9T, L50V, S59T, V68A, F113L
VL: B1 VL with S40T, L52M, T69S, Y93H, F100Y
notes: IGHG1/IGKC expression vectors; measured from CHO culture supernatant; also called Antibody ID 1
Work on B7 yielded a Kd of 0.744 nM, a koff of 0.000348 s⁻¹ and a kon of 468000 M⁻¹ s⁻¹.

B8: germline variant antibody 11 (H1916Al2 / K1916A12) (antibody, V domains shown)
VH: B1 VH with E31D, Y35H, I48M, Q65R, F113L
VL: B1 VL with G33S, H43Q, T69S, Y93H
notes: IGHG1/IGKC expression vectors; measured from CHO culture supernatant; also called Antibody ID 11
With B8 the Kd was 2.1 nM, the koff was 0.000847 s⁻¹ and the kon was 403000 M⁻¹ s⁻¹.

B9: germline variant antibody 34 (H1916D04 / K1916D04) (antibody, V domains shown)
VH: B1 VH with G24A, E31D, L45M, L50V, Y54F, S59T, Q65R, F113L
VL: B1 VL with P8T, G33S, S40T, H43Q, V84L, Y93H, F100Y
notes: IGHG1/IGKC expression vectors; measured from CHO culture supernatant; also called Antibody ID 34
Work on B9 yielded a Kd of 0.458 nM, a koff of 0.000255 s⁻¹ and a kon of 557000 M⁻¹ s⁻¹.

B10: germline variant antibody 15 (H1916B05 / K1916B05) (antibody, V domains shown)
VH: B1 VH with E31D, L50V, Y54F, G57D, Q65R, G66E, V68A, T74K, F113L
VL: B1 VL with H43Q, V84L, Y93H, F100Y
notes: IGHG1/IGKC expression vectors; measured from CHO culture supernatant; also called Antibody ID 15
With B10 the Kd was 2.22 nM, the koff was 0.000616 s⁻¹ and the kon was 278000 M⁻¹ s⁻¹.

B11: germline variant antibody 52 (H1916F05 / K1916F05) (antibody, V domains shown)
VH: B1 VH with A9T, E31D, I48M, Q65R, G66E, T74K, F113L
VL: B1 VL with S40T, H43Q, T69S, V84L, Y93H
notes: IGHG1/IGKC expression vectors; measured from CHO culture supernatant; also called Antibody ID 52
With B11 the Kd was 1.07 nM, the koff was 0.000426 s⁻¹ and the kon was 397000 M⁻¹ s⁻¹.

B12: germline variant antibody 38 (H1916D08 / K1916D08) (antibody, V domains shown)
VH: B1 VH with A9T, E31G, L50V, R52K, S59T, Q65R, T74K, F113L
VL: B1 VL with S40T, H43Q, T69S, V84L, F100Y
notes: IGHG1/IGKC expression vectors; measured from CHO culture supernatant; also called Antibody ID 38
With B12 the Kd was 0.0875 nM, the koff was 0.00075 s⁻¹ and the kon was 8.57e+06 M⁻¹ s⁻¹.

B13: germline variant antibody 16 (H1916B06 / K1916B06) (antibody, V domains shown)
VH: B1 VH with A9T, G24A, E31G, Y54F, S59T, Q65R, G66E, T74K, F113L
VL: B1 VL with S40T, Y93H, F100Y
notes: IGHG1/IGKC expression vectors; measured from CHO culture supernatant; also called Antibody ID 16
B13 showed a Kd of 1.47 nM, a koff of 0.000523 s⁻¹ and a kon of 356000 M⁻¹ s⁻¹.

B14: germline variant antibody 33 (H1916D03 / K1916D03) (antibody, V domains shown)
VH: B1 VH with G24A, E31G, L45M, S59T, F113L
VL: B1 VL with T69S, Y93H, D97E, F100Y
notes: IGHG1/IGKC expression vectors; measured from CHO culture supernatant; also called Antibody ID 33
B14 was tested, and the Kd was 0.0901 nM, the koff was 0.00101 s⁻¹ and the kon was 1.12e+07 M⁻¹ s⁻¹.

B15: germline variant antibody 68 (H1917B01 / K1917B01) (antibody, V domains shown)
VH: B1 VH with A9T, E31G, S59T, Q65R, F113L
VL: B1 VL with S40T, H43Q, L52M, V84L, F100Y
notes: IGHG1/IGKC expression vectors; measured from CHO culture supernatant; also called Antibody ID 68
In the case of B15, the Kd is reported as 1.55 nM, the koff is reported as 0.000447 s⁻¹ and the kon is reported as 289000 M⁻¹ s⁻¹.

B16: germline variant antibody 46 (H1916E06 / K1916E06) (antibody, V domains shown)
VH: B1 VH with G24A, I48M, Y54F, G57D, V58L, Q65R, F113L
VL: B1 VL with V84L, Y93H, F100Y
notes: IGHG1/IGKC expression vectors; measured from CHO culture supernatant; also called Antibody ID 46
B16 gave a Kd of 0.619 nM, a koff of 0.000248 s⁻¹ and a kon of 400000 M⁻¹ s⁻¹.

B17: germline variant antibody 4 (H1916A05 / K1916A05) (antibody, V domains shown)
VH: B1 VH with G24A, G44S, I48M, Y54F, G57D, G66D, T74K, F113L
VL: B1 VL with G33S, F100Y
notes: IGHG1/IGKC expression vectors; measured from CHO culture supernatant; also called Antibody ID 4
B17 showed a Kd of 1.43 nM, a koff of 0.000501 s⁻¹ and a kon of 351000 M⁻¹ s⁻¹.
